From patent US20210198369A1 (DRAGONFLY THERAPEUTICS, published 2021)
“And” between values parts separate entries of the source, which are not always exact repeats. Equal values may be shown once.

T1: fusion protein of human NKG2D and murine Fc (human, UniProt P26718 78-216)
T1 construct: also called mFc-hNKG2D; not shown: murine Fc
T1 sequence (looked up): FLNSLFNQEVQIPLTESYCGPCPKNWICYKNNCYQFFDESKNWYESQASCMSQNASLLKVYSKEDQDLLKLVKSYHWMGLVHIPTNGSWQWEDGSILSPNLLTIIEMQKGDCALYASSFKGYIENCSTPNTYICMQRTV


Columns and labels:
[1] = biological target: T1, fusion protein of human NKG2D and …; experiment: SPR at 37 C, steady state affinity fit, average of two independent experiments
Source text: (§1) Steady state affinity fit was utilized to obtain the equilibrium affinity data.

[2] = biological target: T1, fusion protein of human NKG2D and …; experiment: SPR at 37 C, mFc-hNKG2D captured, TriNKET as analyte, steady state affinity fit
Source text: as §1

[3] = biological target: T1, fusion protein of human NKG2D and …; experiment: SPR at 37 C, mFc-hNKG2D captured, TriNKET as analyte, steady state affinity fit; reference TriNKET A
Source text: as §1

[4] = biological target: T2, HER2 (ErbB2) expressed on human cells (SkBr-3, NCI-H661, 786-O cancer cells; human cardiomyocytes) (human, UniProt P04626 23-1255); experiment: cell-based or functional assay
[5] = biological target: T2, HER2 (ErbB2) expressed on human cells …; experiment: flow cytometry on H661 cells, anti-human IgG secondary, fold over background (control TriNKET)
Description: (§2) TriNKETs were diluted to 3.8e-4 to 100 μg/mL, and the dilutions were used as primary antibody stain. Binding of the TriNKET was detected using a fluorophore-conjugated anti-human IgG secondary antibody. Cells were analyzed by flow cytometry. Binding fluorescence intensity (MFI) to cells expressing HER2 was normalized to cells stained with a control (non-specific) TriNKET to obtain fold over background (FOB) values.

[6] = biological target: T2, HER2 (ErbB2) expressed on human cells …; experiment: flow cytometry on human cardiomyocytes, anti-human IgG secondary, fold over background (control TriNKET)
Description: as §2

[7] = biological target: T2, HER2 (ErbB2) expressed on human cells …; experiment: flow cytometry on SkBr-3 cells, anti-human IgG secondary, % of maximum MFI
Description: (§3) All three cell lines were used to assess their binding affinity to TriNKET. TriNKETs were diluted in a series of concentrations, and were incubated with the respective cells.

[8] = biological target: T2, HER2 (ErbB2) expressed on human cells …; experiment: flow cytometry on SKBR3 cells, anti-human IgG secondary, fold over background (control TriNKET)
Description: as §2

[9] = biological target: T2, HER2 (ErbB2) expressed on human cells …; experiment: flow cytometry on SkBr-3 cells, anti-human IgG secondary, fold over background (secondary only)
Description: as §3

[10] = biological target: T1, fusion protein of human NKG2D and …; experiment: SPR at 37 C, steady state affinity fit, average of three independent experiments
Source text: as §1

Binder	Kd [1]	Kd [2]	fold reduced affinity compared to TriNKET A [3]	EC50 (nM), % specific lysis of SKBR-3 target cells by KHYG-1-CD16V cells (DELFIA) [4]	EC50 (read off the curve) [5]	EC50 (read off the curve) [6]	EC50 (read off the curve) [7]	EC50 (read off the curve) [8]	EC50 (read off the curve) [9]	Kd [10]
TriNKET A* (mutant form of TriNKET A having a substitution of Ile for the Met at position 102) (bispecific antibody, human IgG1, also called M102 variant) heavy: EVQLVESGGGLVKPGGSLRLSCAASGFTFSSYSMNWVRQAPGKGLEWVSSISSSSSYIYYADSVKGRFTISRDNAKNSLYLQMNSLRAEDTAVYYCARGAPIGAAAGWFDPWGQGTLVTVSSASTKGPSVFPLAPSSKSTSGGTAALGCLVKDYFPEPVTVSWNSGALTSGVHTFPAVLQSSGLYSLSSVVTVPSSSLGTQTYICNVNHKPSNTKVDKKVEPKSCDKTHTCPPCPAPELLGGPSVFLFPPKPKDTLMISRTPEVTCVVVDVSHEDPEVKFNWYVDGVEVHNAKTKPREEQYNSTYRVVSVLTVLHQDWLNGKEYKCKVSNKALPAPIEKTISKAKGQPREPQVCTLPPSRDELTENQVSLTCLVKGFYPSDIAVEWESNGQPENNYKTTPPVLDSDGSFFLYSWLTVDKSRWQQGNVFSCSVMHEALHNHYTQKSLSLSPG scFv: not shown light: DIQMTQSPSSVSASVGDRVTITCRASQGISSWLAWYQQKPGKAPKLLIYAASSLQSGVPSRFSGSGSGTDFTLTISSLQPEDFATYYCQQGVSFPRTFGGGTKVEIKRTVAAPSPPSDEQLKSGTASVVCLLNNFYPREAKVQWKVDNALQSGNSQESVTEQDSKDSTYSLSSTLTLSKADYEKHKVYACEVTHQGLSSPVTKSFNRGEC	481 nM	509 nM and 454 nM	< 2 fold	0.65 nM						
A49-F3'-TriNKET-Trastuzumab (bispecific antibody, human IgG1, also called TriNKET A; HER2-F3'-TriNKET-A49) heavy: EVQLVESGGGLVKPGGSLRLSCAASGFTFSSYSMNWVRQAPGKGLEWVSSISSSSSYIYYADSVKGRFTISRDNAKNSLYLQMNSLRAEDTAVYYCARGAPMGAAAGWFDPWGQGTLVTVSSASTKGPSVFPLAPSSKSTSGGTAALGCLVKDYFPEPVTVSWNSGALTSGVHTFPAVLQSSGLYSLSSVVTVPSSSLGTQTYICNVNHKPSNTKVDKKVEPKSCDKTHTCPPCPAPELLGGPSVFLFPPKPKDTLMISRTPEVTCVVVDVSHEDPEVKFNWYVDGVEVHNAKTKPREEQYNSTYRVVSVLTVLHQDWLNGKEYKCKVSNKALPAPIEKTISKAKGQPREPQVCTLPPSRDELTENQVSLTCLVKGFYPSDIAVEWESNGQPENNYKTTPPVLDSDGSFFLYSWLTVDKSRWQQGNVFSCSVMHEALHNHYTQKSLSLSPG scFv: not shown light: DIQMTQSPSSVSASVGDRVTITCRASQGISSWLAWYQQKPGKAPKLLIYAASSLQSGVPSRFSGSGSGTDFTLTISSLQPEDFATYYCQQGVSFPRTFGGGTKVEIKRTVAAPSPPSDEQLKSGTASVVCLLNNFYPREAKVQWKVDNALQSGNSQESVTEQDSKDSTYSLSSTLTLSKADYEKHKVYACEVTHQGLSSPVTKSFNRGEC		370 nM and 328 nM and 313 nM		0.39 nM	~0.3 µg/mL	~0.4 µg/mL	~10 nM	~0.3 µg/mL	~10 nM	337 nM
